From a protein production outcome set (Wang et al. 2014) come the findings set out here.

A short description of the data set: label from the status in PepcDB records.

Turning to “MLRQIRRNALSNFLSLWNEAATTSLGFFWMALWAFILGYVISSLIQVLVTRRKMQQAMGEDGPRSIALGTFFGFISSSCSFSALATTRAIFNKGAGLAPSLAFMLASTNLVIELGIVIAVFLGWQFVVGEYVGGVLLILVTWLLIRLTRPRRLEAQARRKMDDGDGDGGNSDKSWKEKITSKEGWQAIAQTYVMEWQMVWKDVLIGFTVAGIISAMVPQSFFEALFIGAGGENAANPGFLAVLSQTLVGPIAAFFTFIGSMGNIPLAAVLFAQGVSFAGVMAFIFSDLVVLPVLRINASYYGWKMALYILALMLVGIVTVSLLMHYSLALLGMLPDFSGQTSMGEREFFKWNYQAVLNILFLTATAILLWFWRQGQKQHSHDHHHHDHDHGGSSLTDKVLSVLVVVALLWLAGGVVVPLF”, the protein production result was “failed”.
Then “MLRSSAAAGKGGRILAAKQVNPTRMELTRLKKKRITAIRGHKLLKDKRDELMRQYLDLVRENMEVRKKVEAGIRSANKNFVIAKAGMSEAALNTALMAPKQEVNLEAGEKNVMSVDIPTFQYKTRTADENDIYSYGFAFTSGDLDGAVKSLADVLPDMIRLAECEKACQLMAAEIEKTRRRVNALEHVIIPETEQSIKYITMKLDENERSTQIRLMKVKDMMLEETHHYSEK”, with “failed”; and “MLRVVSLTLVTLISAVAAAAAEPQAGDDLAICRDRQAELQARAQACDNLLNADRLAGKDKAIALSVRGNTLINKRDYARAIETLSMAVDLDPDNVIVLNLRGLAYERSGKDDLAMADYNLALQKRPTYGVPYNNRGVIHLRRGALQSALDDFNLSIKYTPKFLLGWTNRARVRTLMKDFDGAIADFAEAEKIDPAAPQIAGNRCITWGMMGKYDQAFADCNGLIEKQPKNVYAINNRADVSMMKGDLDAALKDYNSAIQINPNNVRAHSGRGQIYERRKDLAQARADYRAAAYSLTKFDELDVARARAVAQERLAALTPQAPAGATGRRVALVIGNGAYKNVHALPNPPRDSKLIANALRDVGFQTVISVSDLTRDKFFEALQTFAAEAEKADWAVVYYAGHGFEIGGVNYLVPVDAKLAADRDAEAQAVALEQVIAAVGAARKVRLVMLDACRDNPFAPTMQRTLSLKLVDKGFSNIEPGAGFMVVYAAKHGETAMDGDGGTDSPFATALAREIKEPRVEIRKLFDIVRDDVWSATRHEQQPFTYGSPPGREDFYFAAGK”, with “failed”.
Then “MLRYHMQGFSGYGVQYSPFFDNRLAVAAGSNFGLVGNGKLFILEIDRSGRIVEVNSFLTQDCLFDLAWNESHENQVLVAQGDGTLRLFDTTFKEFPIAIFKEHEREVFSCNWNLVNRQNFLSSSWDGSIKIWSPLRKQSLMTLTPRPLEITKMVDPLNAIILKKKSFTGISKNRNCVYQAQFSPHDQNLVLSCSGNSYASLFDIRLPSGKNQNNFLVHSGLEALTCDFNKYRPYVVATGGVDNAIRIWDIRMLNKNESATIKRTVPGQLHNSSCINEIPNAHGLAIRKVTWSPHHSNILMSASYDMTCRIWRDLSNDGAKETYKTNSTDATKGSIFNFTQHSEFVFGADWSLWGKPGYVASTAWDGNLFVWNGLG”, with “failed”; and “MLRYSFRSIKRNFASSLLLVGALVAIFVASPLSFSMLSSIQAEVDANIKQYARGSYDLLIRPIGTQTAVETTLGVVEENYLALGEGGISLNEWETIKALDGVEVAAPVASLGYFAGETHTVAVEFPNNSSFIEGRFQTSDGLHTYPLQAGGSYYVLEQEGYYYGYEYVQQGNEEIPGSGGPPFFSMPVTYHLIVGIDQQEEEKLTGFNFSALNNSIPEGFRFYFDLDVERHIKIIYLKDATTPLTVQVDVAPIDWETADTERLKDELGLTYDEPLFISEQFPSLFTQFQDRHIGPIETYTFDLSEHMPPFSYDPVSLDYDGSMHEPIENAYGVSESSRFYQASPIDYDIQAGGRLKVKQVGDYEGIPIYRTIQEQGGAAYELHGIGKIPFLLYPVGHFTTAEYEHSLSASPLGIYQQAPSVLSDGTMLHETIAPGSFVNAPAHGLMALEDAAFIKGDAPIDAIRIRVAGITAYDQEAVDKMSQVATEIAKLGDYQIDVIAGASPAPMTMDVEGIGEVVQPWTSLGAAATIRDGWNGTNVLIAGLFLFVSISYLANRFHFRRHTKKEEQELLLDLGWKKRHIRWLYLMENSSLIFLSAAIASLILLAYIWLYQADWFILIFFVAVVVLTFLFSLIYVSMMRGVQKISFRRLKGQTVWIRNLFYYRRLLTLSIIQLASVALLLAFVVSSIAATIAQTGGTYLGVYINDAVFIPLVSIMVAALFLAVLTVGESTSAFLLLRKEELQTLRDIGWRIKDVHRLCLKESAVWTTGAIMGGVVISLLTVSVFYSLSLSFLLFAGVAVVLLSSIAIVTAGGMIRSSLRKMA”, with “failed”; and “MLSERAAQMVIFSALIKHKNFTVAAKSLGVSVSHVSKQLSQLEESLGIKLVQRTTRSFTPTEAGKTFYHHCEQVVQAVSSATLEMESQRDEVAGLVRLGLSQSFGTLHIIPAIQELRELYPQLQVEVHLFDYKVDMLAEGLDLWVTNNEHLPEGYIAQRLTDCQFVVAASPDYLLKYDTPTEPNDLSLHNCLIYRSWERDYTGWAFTKGQQELNVKVSGNYSVDLAEAVRDAAIAGWGIAYLATYLLGDEFRTGKLIQLLPDWKASQSMPFYAVYPSRQHMPKKISAVINFIKQKIGNPCHWDQRLAPYISIPK”, with “failed”.
Turning to “MLSHHPSLHFLSKLSTLSLQRNQEKQALVEELEERIELLNRLETTLSKTLNCFPEELVTFLKNNDSVTSLAEFAAECNVDPLRDTQTELLIAASQKLERWWQVEKLVEEEKKRNYEAEKLLKDFEAFKKDLETVITGFKAEQSSATQASVDQEKKALEKLKKAFESYEANSSCQPVDVTHEEVVELGKKVTLLEAQVIEEQLQLDTYQMLPQDPVLARIVLDEAKEKLKEFSAERDSILRNMKFV”, the protein production result is listed as “failed”.
Then “MLSIFYWLLAIFLINLGIFIFVLTHERRSMWAGLTLTSTLMFLAFLAIDALIIIEAQFPQQHQIIANLLLLASVGVALFILVFVFLLIIIFLYNGIKILIKEGTKWTNFLSLGTGIAIILLIFAYPVLGRSTSAPWFRFIYLFLSMSIFYIIFIMVMYTLTSWLNLININTKKLNYIVVLGAGLLGKKVTPLLASRINRGIEIYHKNPDSKLIMSGGQGPDEEIPESHAMAAYAEEHGVPKSDIIIEDRSKTTNQNLKFSHQLMKPNSTFCIVTNSYHVYRALVLAKRQGLQCIGYGAKTKWYFTLNAFIREFIAYLVITKKMQCSIIGSLAVINIIFAALYYASTQFFS”, with “failed”.
Then “MLSIKANHFMPIVRLKENEPFEAALRRFKRTIEKTGLLTELRSREFYEKPTAERKRKHAAAVKRHYKRIRSQQLPPRLYLEHHHHHH”, with “failed”; and “MLSIKQLSYALAVSKTLHFRKAADLCHVRQSTLSTGVSELERQLGIKIFERDNKKVLVTPLGREVLDKASNIMLQLEDMAHLDHSCGEP”, with “failed”.
Then “MLSKFIKTTLATSLLITLSACSNLKSPVPPAKKADQEKLYESTKNYNALIAMYRADLKHFKDPMTQFKLAKSYYHIGDSKSSVLYLKPLRFTKQPFNNEIELLYIRNLIQLGKYQEAQTVATDLIKMSPQNSEAYNLRGISSAQQGELAKAEQDMNKARELFINDVVAINNIAMLNILNNDYRNAVNLLLPQYLNGSKDSRLIHNLVFALVKSGDIDYATDIIRKESLYASPEDLINALKNTEKAPKVGR”, with “failed”.
“MLSKPMELLRPSKGMINVHPIQRGGILTEEARKVLLEWGDGYSMCDICLEGRVDLLDKPPVKRFKEEVAEFLGMDEVRFTAGARHAKFVAMSGFKGALVVDSLAHYTTYIAAELNGLRVYEVPNTGYPEFRIEAESYTDVFEKVKEETGDYPAVALLTHADYKYGNLADAKKVAEICRDYGIPLILNTAYTSGIMEVSGRETGCDFIVASGHKSWAATAPIGILATTFEFAERVFRVSEVRGNWSGRAFTKKEVALFGCSPVYGLPLVTLMASFPVVKERVKRWKEEVEKARWFVEEMEKIEGVMLLGERPKNHTLMNFETPSFNLIAKKHRRKGYFLYHELKERGIFGVQPGMTRNVKLNVYGLSWEEVERVAEAFKEIAEKYGLEVED”: the protein production result is on record as “failed”.
